Reference: patent US20120214173A1, “Methods of Identifying Modulators of an Ehd Polypeptide” (priority 2007, published 2012)
“Also recorded” adds a separate entry of the source.

Experiments:
[1] = test system: Q8BH64
[2] = molecular target: T1, isolated EH-domain of EHD2 (mouse, UniProt Q8BH64 443-543, limits assumed); assay: ITC at 10 °C, 100 mM HEPES pH 7.5, 50 mM NaCl, 200 µM CaCl2; peptide against the EH-domain of EHD2
T1 construct: domain: EH-domain; ITC buffer contained 200 µM CaCl2
T1 sequence (looked up): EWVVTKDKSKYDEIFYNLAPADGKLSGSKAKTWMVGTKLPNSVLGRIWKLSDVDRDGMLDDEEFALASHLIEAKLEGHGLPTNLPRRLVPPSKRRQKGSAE

[3] = molecular target: the molecule itself; assay: negative stain EM on PS liposomes
[4] = Negative stain EM of liposome tubulation/oligomerisation; conditions: 2.5 μM protein, PS liposomes
Description: (§1) Amino acid numbering corresponds to mouse EHD2. b, EHD2 binds to adenine nucleotides, as determined by ITC. For clarity, ΔΔH=ΔHn−ΔH1 is plotted. […] Images were acquired close to the basal cell surface. f, Nucleotide hydrolysis was measured by HPLC in the absence (empty symbols) or presence of Folch liposomes (filled symbols). Data represent mean and standard deviation for two (intrinisic reactions) or three (stimulated reactions) independent experiments.
EHD2 was incubated with the indicated liposomes in the presence and absence of nucleotides and analysed by EM as described in Methods. a, EHD2 deformed PS liposomes into tubular networks, here in the presence of ATP-γ-S. b, Enlarged views of the indicated area in a. Note the presence of regularly spaced EHD2 rings (some are indicated with arrows). This even spacing may be due to the curvature stress generated by an EHD2 ring along the axis of the lipid tubule which might disfavour binding of the next ring in the direct vicinity (see below). c, Some of the lipid tubules (especially at higher protein concentration) were tightly packed with EHD2 oligomeric rings. d,e In the presence of ADP and in the absence of nucleotide (f,g), EHD2 also tubulated PS liposomes and formed ring-like structures around the tubules. e,g are enlarged views of the indicated areas in d and f, respectively.
(§2) Reactions were started by the addition of the protein to the final reaction mix and nucleotide hydrolysis was followed using standard HPLC measurement^27. Initial rates were determined by applying a linear fit to data points up to 40% nucleotide hydrolysis. For electron microscopic studies, 2.5 μM EHD2 in 20 mM HEPES (pH 7.5), 150 mM NaCl, 1 mM MgCl2 was incubated for 15 min at 25° C. in the presence of 1 mM nucleotide and 0.05 mg/ml (final concentration) of the indicated liposomes. Samples were spotted on carbon-coated copper grids (Canemco and Marivac) and negatively stained with 2% uranyl acetate.
Nucleotide-independence of liposome tubulation in vitro is also observed for dynamin^16. No noticeable tubule fission or alteration in tubule diameter was found for EHD2 in the presence of ATP. […] Folch liposomes were also tabulated by EHD2. However, with synthetic liposomes containing only 2.5% PIP2 and in the absence of PS, the amount of EHD binding was reduced, and in this less favourable binding condition we only observed tubulation in the presence of ATP-γ-S and ADP but not in the absence of nucleotides (FIG. 7).

[5] = test system: HeLa cells; assay: Over-expression of EGFP-tagged EHD2 and mutants in HeLa cells (confocal / live imaging); type: cell-based
Description: as §1
Nucleotide hydrolysis was measured as described in FIG. 1f. In vitro tubulation activity of PS liposomes was analysed as described in FIG. 1d. f, EGFP-tagged mutants were over-expressed in HeLa cells. […] For each construct, three independent experiments with ≈50 cells/experiments were analysed.
Ultracentrifugation. Sedimentation velocity experiments were performed in a Beckman Optima XLA ultracentrifuge, using an An-60Ti rotor. Centrifugation was at 50,000 rev×min and 5° C. at an EHD2 concentration of 15 μM, with scans as fast as possible (˜1.5 min intervals). The data were analysed using DCDT+ v.2^44,45, with the partial specific volume for the protein (from the amino acid composition) and solvent density and viscosity calculated using Sednterp^46. Selected scans (at equal, ˜15 min intervals), and of g(s20,w) (the amount of material sedimenting between s20,w and (s20,w+δs)) and also the residuals for fitting the data with DCDT+, were plotted with the program profit v.5.6.7 (Quantum soft, Switzerland). Cell biology. N-terminal EGFP-tagged EHD2 and all mutants were over-expressed in HeLa cells from the pEGFP-C3 vector (Clontech). HeLa cells were grown as per ECACC guidelines with 10% fetal bovine serum and transfected using Genejuice (Novagen) for transient protein expression. 24 h after transfection, cells were fixed for 10 min at 37° C. in 3% paraformaldehyde and mounted. All confocal images were taken sequentially using a BioRad Radiance system and LaserSharp software (Biorad). For real-time microscopy, transfected cells on glass-bottom Petri dishes (WillCo Wells BV, Amsterdam) were washed with 25 mM HEPES (pH 7.5), 125 mM NaCl, 5 mM KCl, 10 mM D-glucose, 1 mM MgCl2, 2 mM CaCl), and epifluorescence images were taken using an Olympus IX70 microscope (Southhall, UK) and Argon laser (Melles Griot, Carlsbad, Calif.) with a Princeton instruments (Trenton, N.J.) cooled I-PentaMAX camera with MetaMorph software (Universal imaging).
EHD2 wild-type was over-expressed in HeLa cells for 24 h and imaged by EPI-fluorescence for approximately 30 min.
EHD2 T94A was over-expressed in HeLa cells for 24 h and imaged by EPI-fluorescence for approximately 30 min. […] EHD2 I157Q was over-expressed in HeLa cells for 24 h and imaged by EPI-fluorescence for approximately 30 min.

[6] = molecular target: T2, EHD2 (Mus musculus, UniProt Q8BH64); assay: Multiple turnover ATPase assay (nucleotide hydrolysis by HPLC) with or without Folch liposomes; type: biochemical; conditions: presence of Folch liposomes
T2 construct: Mouse EHD2 full-length protein and all mutants were expressed as N-terminal His-fusions followed by a PreScission cleavage site; His (N, cleaved yes); made in house; host or cells: Escherichia coli BL21 DE3 Rosetta
T2 sequence (Q8BH64 1-543): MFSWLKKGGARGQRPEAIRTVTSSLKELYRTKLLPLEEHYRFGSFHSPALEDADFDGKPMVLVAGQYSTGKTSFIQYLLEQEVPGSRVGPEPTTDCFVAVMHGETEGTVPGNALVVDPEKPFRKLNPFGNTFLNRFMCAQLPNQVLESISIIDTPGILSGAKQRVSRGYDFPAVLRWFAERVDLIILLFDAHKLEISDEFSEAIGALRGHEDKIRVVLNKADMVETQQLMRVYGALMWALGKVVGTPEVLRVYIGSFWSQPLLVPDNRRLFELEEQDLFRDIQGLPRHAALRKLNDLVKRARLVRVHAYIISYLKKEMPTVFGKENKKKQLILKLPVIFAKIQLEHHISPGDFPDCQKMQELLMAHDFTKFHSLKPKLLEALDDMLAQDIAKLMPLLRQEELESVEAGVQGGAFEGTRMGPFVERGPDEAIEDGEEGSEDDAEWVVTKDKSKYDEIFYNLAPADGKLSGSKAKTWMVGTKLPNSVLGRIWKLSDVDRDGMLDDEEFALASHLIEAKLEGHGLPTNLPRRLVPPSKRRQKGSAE
Description: as §1
ITC measurements were performed at 10° C. in 20 mM HEPES (pH 7.5), 300 mM NaCl, 2 mM MgCl2. Liposome binding assays were performed as described previously (www.endocytosis.org). Multiple turnover ATPase assays were performed in 20 mM HEPES (pH 7.5), 135 mM NaCl, 15 mM KCl, 1 mM MgCl2 at 30° C. with 10 μM EHD2 (or mutants) as enzyme and 100 μM ATP as substrate, in the absence or presence of 1 mg/ml Folch liposomes (Sigma-Aldrich).
as §2
We next monitored the effect of membrane-binding on the ATPase activity of. EHD2 under multiple-turnover conditions (10-fold excess of ATP over EHD2), in the presence and absence of Folch liposoines (FIG. 1f). The intrinsic/background ATPase activity is extremely slow (kobs=0.7 h^−1) but is stimulated 8-fold in the presence of Folch or PS liposomes (kobs=5.6 h^−1).

[7] = molecular target: T1, isolated EH-domain of EHD2; assay: ITC at 10 °C, peptide against the EH-domain of EHD2

## EHD2 deletion mutant of the EH-domain (ΔEH)
[1]
  membrane-stimulated ATPase activity: did not show any membrane-stimulated ATPase activity

## KLNPFGNT (also called side site NPF peptide) [peptide 124-KLNPFGNT from EHD2]
[2]
  Kd: 130 µM

B1: EHD2 T94A (enzyme, mouse, UniProt Q8BH64 1-543, looked up)
chain: MFSWLKKGGARGQRPEAIRTVTSSLKELYRTKLLPLEEHYRFGSFHSPALEDADFDGKPMVLVAGQYSTGKTSFIQYLLEQEVPGSRVGPEPTADCFVAVMHGETEGTVPGNALVVDPEKPFRKLNPFGNTFLNRFMCAQLPNQVLESISIIDTPGILSGAKQRVSRGYDFPAVLRWFAERVDLIILLFDAHKLEISDEFSEAIGALRGHEDKIRVVLNKADMVETQQLMRVYGALMWALGKVVGTPEVLRVYIGSFWSQPLLVPDNRRLFELEEQDLFRDIQGLPRHAALRKLNDLVKRARLVRVHAYIISYLKKEMPTVFGKENKKKQLILKLPVIFAKIQLEHHISPGDFPDCQKMQELLMAHDFTKFHSLKPKLLEALDDMLAQDIAKLMPLLRQEELESVEAGVQGGAFEGTRMGPFVERGPDEAIEDGEEGSEDDAEWVVTKDKSKYDEIFYNLAPADGKLSGSKAKTWMVGTKLPNSVLGRIWKLSDVDRDGMLDDEEFALASHLIEAKLEGHGLPTNLPRRLVPPSKRRQKGSAE
notes: mature; also called T94A mutant
[3]
  binding result: binds
[4]
  liposome tubulation / oligomerisation by EM: oligomerised around PS liposomes
[5]; 24 h after transfection, fixed
  distribution of EGFP-tagged protein over-expressed in HeLa cells: extensive tubulation with no punctate stained; also recorded: labelled extensive tubular structures with essentially, no punctate staining
[5]; over-expressed 24 h, imaged approximately 30 min
  dynamics of tubules and puncta by EPI-fluorescence live imaging: only tubules, and these are mostly static
[6]
  membrane-stimulated ATPase activity (in words): did not show any membrane-stimulated ATPase activity

## PEKPFRKL (also called side site KPF peptide) [peptide 118-PEKPFRKL from EHD2]
[7]
  binding result: no binding

## RMGPFVER (also called top site GPF peptide) [peptide 418-RMGPFVER from EHD2]
[7]
  binding result: no binding
